Consider 20 sequences from the DeepSol protein solubility set.

A short description of this series: soluble on expression in E. coli; label from the status in PepcDB or PDB records.
As to “MTVGVGGSTPAQALERLRNMMDGAQPIGLASYRARIAAAQAWMGEHGIAAAYLHAGSNLRYFSGVQWHPSERLVGALLPAEGALEYLAPAFEEGTVRDFQVVDGAIHTWEEHQDPYRLLLDRLEALGVGERSTVALCPSLPFGMFERLRQQAPGRNFVSAAPLIDQGRMRKSAEELALMQRAKDMTLEVQKAAASILREGISTTEVAEFIHQAHRKVGAPGSTFCIVLFGAASAFPHGVKHAQVLKDGDMVLIDTGCQVHGYQSDITRSYVFGTPSARQREFWGMERDAQLAAFEAARLGQPCEAVDAAARRSLEANGLGPDYRLPGLPHRTGHGIGMDVHEGPYLVRGDRTPLDVGMCFSNEPMICVPGEFGIRLEDHFYMTKEGPRWFT”, the “soluble on expression in E. coli” value is given as “not soluble”. With “MTVLIAGAGIAGLSLGLTLHQIGVPFRIYEATAVLRPMGVGINLQPNAVRELLDLGLEAELDRIGVRTRQLGFYSKLGKTIWEEPRGIWAGYAWPQYSVHRGALQMMLYEALIARAGADCVVTGARAAGFETGPESATLILSDGRRVEGRLLIAADGIHSALRAQMYPNEGEPIWNGRVLWRATTRAPAYFGGGAMAMIGHDDLRLVSYPISEPDGDGMVEMNWIAEKRFPLDAAWKKEDWNRAADIGDFLPDFADWRFDWIDVPALIQGAEVVYEYPMVDRDPLPRWTGGSVTLMGDAAHPTYPVGSNGASQAILDARIIGARLLEHGITPRALAAYEAEVRPVTTAVGQANRAGGGPDGVLQRVEDLCGGDFDDIDTVIPHAELAAHAARYKSIAGFSIEELNARPRTIAEGARIPALEHHHHHH” the entry was “not soluble”; with “MTVRSRFFTEAEGKAVGVENAAAKGDVLLVCEHASATIPQKYGTLGLSADVLSSHAAWDPGALAVARLLSEKFHATLVYQRFSRLVYDCNRPPESPSAMPVKSEIYDIPGNFDLDEAERFARTSALYVPFHDRVSEIIAERQAAGRKVVVVTIHSFTPVYHGRFREVEIGILHDNDSRLADAMLAGAEGASLTVRRNDPYGPEDGVTHTLRLHALPDGLLNVMIEIRNDLIANEGEQAAIAGFLHELMGKALSSIEE”, “soluble”. With “MTVTLTCRFKLELSKDQKQQFLDIATAYTNAVNYVLEQNLKDKSTNVKKLHRLYYKTIREDFDLPAQMAINVNRDVSAMYKTLWAQFKELKRRKPDSKAVKKFWDKPPKRKSLIVKYTYNRTASFKKINGEWHASLSTLQGRIKWIPMKGWSKHFEYLKSCKIGDPILTYDKSSKTFFLLVPVTLEVQEHQPKEIVGVDVGERHIAAVASTKGTRYLIDLPEEFKQRKQHYQRLRSELMSKGTRSAKRKLARISRREKRFTENVLHIIAKKLTTSHPGARFVLEDLTQIRANRITYRGKDKEARRQSEQWPFASLQQKIEYKAKLYYGVQSEKVDPSYTSQTCPRCGHVSKENRPDHGERFVCQSCGYEEHADIVGAINIALRVLAKDQQVNLEKLLGAVVSRPDAPRLG” the entry was “not soluble”; with “MTVTLTCRFKLELSKDQKQQFLDIATAYTNAVNYVLEQNLKDKSTNVKKLHRLYYKTIREDFDLPAQMAINVNRDVSAMYKTLWAQFKELKRRKPDSKAVKKFWDKPPKRKSLIVKYTYNRTASFKKINGEWHASLSTLQGRIKWIPMKGWSKHFEYLKSCKIGDPILTYDKSSKTFFLLVPVTLEVQEHQPKEIVGVDVGERHIAAVASTKGTRYLIDLPEEFKQRKQHYQRLRSELMSKGTRSAKRKLARISRREKRFTENVLHIIAKKLTTSHPGARFVLEDLTQIRANRITYRGKDKEARRQSEQWPFASLQQKIEYKAKLYYGVQSEKVDPSYTSQTCPRCGHVSKENRPDHGERFVCQSCGYEEHADIVGAINIALRVLAKDQQVNLEKLLGAVVSRPDAPRLGLEHHHHHH”, “soluble”.

On to “MTWNPLALATALQTVPEQNIDVTNSENALIIKMNDYGDLQINILFTSRQMIIETFICPVSSISNPDEFNTFLLRNQKMMPLSSVGISSVQQEEYYIVFGALSLKSSLEDILLEITSLVDNALDLAEITEEYSHLEHHHHHH”, for which the “soluble on expression in E. coli” value is given as “soluble”. For “MTYCLAIKVDQGLVFASDSRTHAGVDYASVYSKMYRFDLHSDRLMIVLAAGNLATTQAVINLIRRDLENPGALYNLNTVAYLYDAASYIGETSVRVQEQHASAMQRCGISGEASFILGGQIQGQPPEIYLIYPQGNYITVSPDNPYLQIGETKYGKPILDRMIAPATTLEDAARCALVSIDSTMRSNISVGPPVEVAIYRRNSFVVGHYLHLDYSSPLYALIQKQWAEGIRNAFTLLPRFEWEDGGSIGSEQSQLEHHHHHH” the value was “not soluble”.

With “MVAAGDINVRVTSMDSELEFAIQSSTTGKQLFDQVVKTIGLREIWYFGLQYTDNKGFPTWLKLNKKVLSQDVKKDPTLVFKFRAKFYPEDVAEEIIQDVTMRLFYLQVKDGILSDEIYCPPETSVLLASYAMQAKYGDYVPETHVAGCLTADRLLPQRVLGQFKLNSEEWERRIMTWWADHRATTREQAMLEYLKIAQDLEMYGVNYFEIRNKKGTDLYLGVDALGLNIYDKADRLSPKVGFPWSEIRNISFNDKKFVIKPIDKKAHDFVFYAPRLRINKRILALCMGNHELYMRRRKPDTIEVQQMKQQAREDRALKIAEQEKLTREMSAREEAEQRQRDAEKRMAQMQEDMERARLELAEAHNTIHSLEAQLKQLQLAKQALEQKEYELRELTAQLQSEKAMSDGERRHLRDQVDAREREVFSMREEVERQTTVTRQLQTQIHSQQHTQHYSNSHHVSNGHAHDETATDDEDNGATELTNDADQNVPQHELERVTAAEKNIQIKNKLDMLTRELDSVKDQNAVTDYDVLHMENKKAGRDKYKTLRQIRGGNTKRRIDQYENM”, the “soluble on expression in E. coli” value is on record as “not soluble”. For “MVADRFSHVRGWVFDLDNTLYPPSARLFDQIERRMTDWVMTELRVVREEADRLRRHYWSTYGTTLAGLMAEHGVDPAPYLSHVHDISLDHLERDMILAARIRALPGRKIVYTNGCAPYAERVLEARGLANLFDAVYGVEHAGFRPKPDRAAFETVFAADRLAPGTAAMFEDDSRNLLAPHEMGMRTVHVAPEALPAPHIHHHTLDLSEFLALLQP” the value was “not soluble”; for “MVADSQPGHIDQIKQTNAGAVYRLIDQLGPVSRIDLSRLAQLAPASITKIVREMLEAHLVQELEIKEAGSRGRPAVGLMVETEAWHYLSIRISRGEIFLALRDLSSKLVVEECLPLPLTEATPLLERIITHVDRFFTRHQQKLERLTSIAITLPGIIDTENGVVHRMPYYEDVKEMPLGDSLERHTGVPVYIQHDISAWTMAEALFGASRGARDVIQVVIDHNVGAGVITDGHLLHAGSSSLVEIGHTQVDPYGKRCYCGNHGCLETIASVDSVLELTQLRLNQSMSSMLHGQPLTVDSLCQAAMQGDLLAKDIISGVGAHVGRILAIMVNLFNPQKILIGSPLSKAADILFPAIADSIRQQALPAYSRNTVVESTQFTNQGTMAGAALVKDAMYNGSLLIRLLQG”, “not soluble”; for “MVAIIFDMDGVLYRGNRAIPGVRELIEFLKERGIPFAFLTNNSTKTPEMYREKLLKMGIDVSSSIIITSGLATRLYMSKHLDPGKIFVIGGEGLVKEMQALGWGIVTLDEARQGSWKEVKHVVVGLDPDLTYEKLKYATLAIRNGATFIGTNPDATLPGEEGIYPGAGSIIAALKVATNVEPIIIGKPNEPMYEVVREMFPGEELWMVGDRLDTDIAFAKKFGMKAIMVLTGVSSLEDIKKSEYKPDLVLPSVYELIDYLKTL”, “soluble”. With “MVAQSKILLYYKFTPIADPKAMMLWQRDMCELLGLKGRILISEHGINGTVGGDMDACKRYVRKMREYPGFRGTEFKWSDGGAEDFPKLSVKVRDEIVAFGAPGELKVDEKGVIGGGVHLKPEEVNKLVEERGDDVVFFDGRNAMEAQIGKFKNAVVPDVRTTHDFIRELESGKYDWMKDKPVVSYCTGGIRCEILSSLMKNRGFKEIYQIDGGIVRYGEKYGNDGLWEGSLYVFDRRMHMEFGNGVQDPGFIQLGHCVQCGAPTNKFEHCINEDECRELVLMCPDCYENPATRNCGREHCKEVAAEAAAAAAVLEHHHHHH” the entry was “soluble”.

On to “MVATEKKFTLRHIFKNVSQLEDGKYLYSPDEDHFNVDWNMSISHKKEKLGVYFYCYKSEESASAWSIDTEYDLALKNSSGKRISIDFKYKFSTSTGFGTAELVSWDAMIKDYLIDDVIIMEATVKIINLMGIPKKTLRTFDESNEEFSDVILTVEDEKFYVLKQFLASHSSHFKTLFLRKCEEEAEKSEYTLQDINSIDFQNLLEVLHGEPAIDEETVQGIRDLADKYDMPFPTRKCEEFLIDLSEKSIKEKLKIAKQFQLEKLKMHCLSKIETVDHIKAAMTGDPIEMDLSVLAALLGKSLALH”, for which the “soluble on expression in E. coli” value is reported as “not soluble”. Regarding “MVDIEIWLRLMSISSLYGDDMVRIAHWLAKQSHIDAVVLQQTGLTLRQAQRFLSFPRKSIESSLCWLEQPNHHLIPADSEFYPPQLQATTDYPGALFVEGELHALHSFQLAVVGSRAHSWYGERWGRLFCETLATCGVTITSGLARGIDGVVHKAALQVNGVSIAVLGNGLNTIHPRRHARLAASLFEQGGALVSEFPLDVPPLAYNFPRRNRIISGLSKGVLVVEAALRSGSLVTARCALEQGREVFALPGPIGNPGSEGPHWLIKQGAILVTEPEEILENLQFGLHWLPDAPENSFYSPDQQDVALPFPELLANVGDEVTPVDVVAERAGQPVPEVVTQLLELELAGWIAAVPGGYVRLRRACHVRRTNVFV”, the “soluble on expression in E. coli” value is given as “not soluble”.

In the case of “MVDNVLAILRMGDELADLAVDLFDGVTDPTGIAPATTRIVARAEELLSARGNGRDDIRIACGPGCMTCCTVNVSVLVPEAWTIAVWLRQHHDAGEVDRLAVRLTAAARAIRWLDDADRIRSGVTCPFLDERGWCSIHPVRPLMCRALTSTDPAQCRRALESRTSDEEVPLECNLLQKYLMEQAYRSLAAALERRGIDSAGRELVGTVARFLNEPWLADKFLVGRLITLPESLEHHHHHH”, the “soluble on expression in E. coli” value was “not soluble”. As for “MVDQGILRLRQKDASLEFGPPRRRTTVVNWYQERHGTRLTKPEWPLAFVCRNPGTCLQIELVTVMII”, the “soluble on expression in E. coli” value is given as “not soluble”. “MVDQQDTFAEYFKNWYIFYKKPKVSKVTLNRYQYTYNVINEYFGNKLLKDITRANYQKFIVKYGQNHSPNTMKMINNCIKACVKNAVYDEEIKKDFTYNIELISNRDNVVQLEHHHHHH”: the “soluble on expression in E. coli” value is on record as “soluble”. With “MVERLEALFDALAELTGQRNAIDAKIVQIVAEIDRDGLWGATGARSISALVAWKTGASERNAKAIAAVAHRAEEFPRCVQGLGAGRLSLDQVGVIAEGAADGSDEHYAALASVATVSQLRKAISLEPKPEPEPKPDPRRSIRTNPGDGYTTYHITLPRLEAAKFDTALEASHEGLIARWEREQDPGDPAVPMPDLVDAFMALVETGWDREATRRPHGQHTAVAVHVDLKSKVAALHLGPLLGDDERRLLTCDATCEVWFELRGRVIGTGRATRTVNRRLRRALEHRDRCCVVPGCSATRGLHAHHLVHWEDGGLTEMANLVLLCPYHHRAHHRGLITITGPADQLTVTDDRGRLLTNQSLARTPLEHHHHHH”, the “soluble on expression in E. coli” value is “soluble”. With “MVEVRYLGHSAVLLTDGKTRIVIDPFLTGNPMAALGVGEVQADLILVTHAHGDHFGDSVALSKKGGVVVSTFEIATYAEKHGAKSVPMNLGGTYRFEGGWLKWVPAWHSSSFPDGTYGGMPMGVVVELGGKRIYHAGDTALFSDMRLIGEMGLDLALLPIGDHFTMGPEDALKALELLRPKKVVPIHYNTFPPIRQDGEAFAQRAREKGVEGHALKPGEVLRLD” the entry was “soluble”; with “MVFDPRTLDNPKEISAYRDQRYQGTVRDQETALRTSCTLYVGNLSYYTKEDQVYELFGRAGDVRRVIMGLDRFKKTPCGFCFVEYYTREDAELALQNISNTRMDDRVIRADWDAGFIEGRQYGRGKHGGQVRDEYRKDYDPERGGYNRAIAQKG”, “not soluble”.
